To fix the notation:
B1: GCDB40 (bispecific antibody, V domains shown)
VH 1: EVQLVESGGGLVQPGGSLRLSCAASGFTFNTYAMNWVRQAPGKGLEWVARIRSKYNNYATYYAASVKGRFTISRDDSKNSLYLQMNSLKTEDTAVYYCARHGNFGNSYVSWFAYWGQGTLVTVSS
VL 1: QTVVTQEPSLTVSPGGTVTLTCRSSTGAVTTSNYANWVQQKPGQAPRGLIGGTNKRAPGTPARFSGSLLGGKAALTLSGVQPEDEAEYYCALWYSNLWVFGGGTKLTVL
VH 2: EVQLLESGGGLVQPGGSLRLSCAASGFTFSDYGMHWVRQAPGKGLEWVSAIKYSGGSTYYADSVKGRFTISRDNSKNTLYLQMNSLRAEDTAVYYCAKRAESGPGLDYWGQGTLVTVSS
VL 2: not shown
B2: GCDB41 (bispecific antibody, V domains shown)
VH 1: EVQLVESGGGLVQPGGSLRLSCAASGFTFNTYAMNWVRQAPGKGLEWVARIRSKYNNYATYYAASVKGRFTISRDDSKNSLYLQMNSLKTEDTAVYYCARHGNFGNSYVSWFAYWGQGTLVTVSS
VL 1: QTVVTQEPSLTVSPGGTVTLTCRSSTGAVTTSNYANWVQQKPGQAPRGLIGGTNKRAPGTPARFSGSLLGGKAALTLSGVQPEDEAEYYCALWYSNLWVFGGGTKLTVL
VH 2: QVQLVQSGAEVKKPGSSVKVSCKASGGTFSSYGISWVRQAPGQGLEWMGGIIPIFGNINYAQKFQGRVTITADESTSTAYMELSSLRSEDTAVYYCARVSRRFKRFAYYFDYWGQGTLVTVSS
VL 2: not shown
B3: GC5B486 (antibody, V domains shown)
VH: EVQLVQSGAEVKKPGESLKISCKGSGYSFTSYYIGWVRQMPGKGLEWMGIIYPGESDTRYSPSFQGQVTISADKSISTAYLQWSSLKASDTAMYYCARVYSFGGRHKALFDYWGQGTLVTVSS
VL: EIVLTQSPATLSLSPGERATLSCRASQSVSSYLAWYQQKPGQAPRLLIYDASNRATGIPARFSGSGSGTDFTLTISSLEPEDFAVYYCQQRSNWPLTFGQGTKVEIK
notes: GC5B164 PTM variant, Hc GC5H263
B4: GC5B501 (antibody, V domains shown)
VH: EVQLVQSGAEVKKPGESLKISCKGSGYSFTSYWIGWVRQMPGKGLEWMGIIYPGASDTRYSPSFQGQVTISADKSISTAYLQWSSLKASDTAMYYCARVYSFGGRHKALFDYWGQGTLVTVSS
VL: EIVLTQSPATLSLSPGERATLSCRASQSVSSYLAWYQQKPGQAPRLLIYDASNRATGIPARFSGSGSGTDFTLTISSLEPEDFAVYYCQQRSNWPLTFGQGTKVEIK
notes: GC5B164 PTM variant, Hc GC5H248
B5: GC5B505 (antibody, V domains shown)
VH: EVQLVQSGAEVKKPGESLKISCKGSGYSFTSYWIGWVRQMPGKGLEWMGIIYPGYSDTRYSPSFQGQVTISADKSISTAYLQWSSLKASDTAMYYCARVYSFGGRHKALFDYWGQGTLVTVSS
VL: EIVLTQSPATLSLSPGERATLSCRASQSVSSYLAWYQQKPGQAPRLLIYDASNRATGIPARFSGSGSGTDFTLTISSLEPEDFAVYYCQQRSNWPLTFGQGTKVEIK
notes: GC5B164 PTM variant, Hc GC5H244
B6: GC5B490 (antibody, V domains shown)
VH: EVQLVQSGAEVKKPGESLKISCKGSGYSFTSYAIGWVRQMPGKGLEWMGIIYPGESDTRYSPSFQGQVTISADKSISTAYLQWSSLKASDTAMYYCARVYSFGGRHKALFDYWGQGTLVTVSS
VL: EIVLTQSPATLSLSPGERATLSCRASQSVSSYLAWYQQKPGQAPRLLIYDASNRATGIPARFSGSGSGTDFTLTISSLEPEDFAVYYCQQRSNWPLTFGQGTKVEIK
notes: GC5B164 PTM variant, Hc GC5H259
B7: GC5B492 (antibody, V domains shown)
VH: EVQLVQSGAEVKKPGESLKISCKGSGYSFTSYVIGWVRQMPGKGLEWMGIIYPGYSDTRYSPSFQGQVTISADKSISTAYLQWSSLKASDTAMYYCARVYSFGGRHKALFDYWGQGTLVTVSS
VL: EIVLTQSPATLSLSPGERATLSCRASQSVSSYLAWYQQKPGQAPRLLIYDASNRATGIPARFSGSGSGTDFTLTISSLEPEDFAVYYCQQRSNWPLTFGQGTKVEIK
notes: GC5B164 PTM variant, Hc GC5H257
B8: GC5B504 (antibody, V domains shown)
VH: EVQLVQSGAEVKKPGESLKISCKGSGYSFTSYWIGWVRQMPGKGLEWMGIIYPGESDTRYSPSFQGQVTISADKSISTAYLQWSSLKASDTAMYYCARVYSFGGRHKALFDYWGQGTLVTVSS
VL: EIVLTQSPATLSLSPGERATLSCRASQSVSSYLAWYQQKPGQAPRLLIYDASNRATGIPARFSGSGSGTDFTLTISSLEPEDFAVYYCQQRSNWPLTFGQGTKVEIK
notes: GC5B164 PTM variant, Hc GC5H245
B9: GC5B488 (antibody, V domains shown)
VH: EVQLVQSGAEVKKPGESLKISCKGSGYSFTSYFIGWVRQMPGKGLEWMGIIYPGESDTRYSPSFQGQVTISADKSISTAYLQWSSLKASDTAMYYCARVYSFGGRHKALFDYWGQGTLVTVSS
VL: EIVLTQSPATLSLSPGERATLSCRASQSVSSYLAWYQQKPGQAPRLLIYDASNRATGIPARFSGSGSGTDFTLTISSLEPEDFAVYYCQQRSNWPLTFGQGTKVEIK
notes: GC5B164 PTM variant, Hc GC5H261
B10: GC5B493 (antibody, V domains shown)
VH: EVQLVQSGAEVKKPGESLKISCKGSGYSFTSYFIGWVRQMPGKGLEWMGIIYPGYSDTRYSPSFQGQVTISADKSISTAYLQWSSLKASDTAMYYCARVYSFGGRHKALFDYWGQGTLVTVSS
VL: EIVLTQSPATLSLSPGERATLSCRASQSVSSYLAWYQQKPGQAPRLLIYDASNRATGIPARFSGSGSGTDFTLTISSLEPEDFAVYYCQQRSNWPLTFGQGTKVEIK
notes: GC5B164 PTM variant, Hc GC5H256
B11: GC5B491 (antibody, V domains shown)
VH: EVQLVQSGAEVKKPGESLKISCKGSGYSFTSYYIGWVRQMPGKGLEWMGIIYPGYSDTRYSPSFQGQVTISADKSISTAYLQWSSLKASDTAMYYCARVYSFGGRHKALFDYWGQGTLVTVSS
VL: EIVLTQSPATLSLSPGERATLSCRASQSVSSYLAWYQQKPGQAPRLLIYDASNRATGIPARFSGSGSGTDFTLTISSLEPEDFAVYYCQQRSNWPLTFGQGTKVEIK
notes: GC5B164 PTM variant, Hc GC5H258
B12: GC5B497 (antibody, V domains shown)
VH: EVQLVQSGAEVKKPGESLKISCKGSGYSFTSYVIGWVRQMPGKGLEWMGIIYPGDSDTRYSPSFQGQVTISADKSISTAYLQWSSLKASDTAMYYCARVYSFGGRHKALFDYWGQGTLVTVSS
VL: EIVLTQSPATLSLSPGERATLSCRASQSVSSYLAWYQQKPGQAPRLLIYDASNRATGIPARFSGSGSGTDFTLTISSLEPEDFAVYYCQQRSNWPLTFGQGTKVEIK
notes: GC5B164 PTM variant, Hc GC5H252
B13: GC5B503 (antibody, V domains shown)
VH: EVQLVQSGAEVKKPGESLKISCKGSGYSFTSYWIGWVRQMPGKGLEWMGIIYPGKSDTRYSPSFQGQVTISADKSISTAYLQWSSLKASDTAMYYCARVYSFGGRHKALFDYWGQGTLVTVSS
VL: EIVLTQSPATLSLSPGERATLSCRASQSVSSYLAWYQQKPGQAPRLLIYDASNRATGIPARFSGSGSGTDFTLTISSLEPEDFAVYYCQQRSNWPLTFGQGTKVEIK
notes: GC5B164 PTM variant, Hc GC5H246
B14: GC5B502 (antibody, V domains shown)
VH: EVQLVQSGAEVKKPGESLKISCKGSGYSFTSYWIGWVRQMPGKGLEWMGIIYPGSSDTRYSPSFQGQVTISADKSISTAYLQWSSLKASDTAMYYCARVYSFGGRHKALFDYWGQGTLVTVSS
VL: EIVLTQSPATLSLSPGERATLSCRASQSVSSYLAWYQQKPGQAPRLLIYDASNRATGIPARFSGSGSGTDFTLTISSLEPEDFAVYYCQQRSNWPLTFGQGTKVEIK
notes: GC5B164 PTM variant, Hc GC5H247
B15: GC5B495 (antibody, V domains shown)
VH: EVQLVQSGAEVKKPGESLKISCKGSGYSFTSYAIGWVRQMPGKGLEWMGIIYPGYSDTRYSPSFQGQVTISADKSISTAYLQWSSLKASDTAMYYCARVYSFGGRHKALFDYWGQGTLVTVSS
VL: EIVLTQSPATLSLSPGERATLSCRASQSVSSYLAWYQQKPGQAPRLLIYDASNRATGIPARFSGSGSGTDFTLTISSLEPEDFAVYYCQQRSNWPLTFGQGTKVEIK
notes: GC5B164 PTM variant, Hc GC5H254
B16: GC5B496 (antibody, V domains shown)
VH: EVQLVQSGAEVKKPGESLKISCKGSGYSFTSYYIGWVRQMPGKGLEWMGIIYPGDSDTRYSPSFQGQVTISADKSISTAYLQWSSLKASDTAMYYCARVYSFGGRHKALFDYWGQGTLVTVSS
VL: EIVLTQSPATLSLSPGERATLSCRASQSVSSYLAWYQQKPGQAPRLLIYDASNRATGIPARFSGSGSGTDFTLTISSLEPEDFAVYYCQQRSNWPLTFGQGTKVEIK
notes: GC5B164 PTM variant, Hc GC5H253
B17: GC5B498 (antibody, V domains shown)
VH: EVQLVQSGAEVKKPGESLKISCKGSGYSFTSYFIGWVRQMPGKGLEWMGIIYPGDSDTRYSPSFQGQVTISADKSISTAYLQWSSLKASDTAMYYCARVYSFGGRHKALFDYWGQGTLVTVSS
VL: EIVLTQSPATLSLSPGERATLSCRASQSVSSYLAWYQQKPGQAPRLLIYDASNRATGIPARFSGSGSGTDFTLTISSLEPEDFAVYYCQQRSNWPLTFGQGTKVEIK
notes: GC5B164 PTM variant, Hc GC5H251
B18: GC5B487 (antibody, V domains shown)
VH: EVQLVQSGAEVKKPGESLKISCKGSGYSFTSYVIGWVRQMPGKGLEWMGIIYPGESDTRYSPSFQGQVTISADKSISTAYLQWSSLKASDTAMYYCARVYSFGGRHKALFDYWGQGTLVTVSS
VL: EIVLTQSPATLSLSPGERATLSCRASQSVSSYLAWYQQKPGQAPRLLIYDASNRATGIPARFSGSGSGTDFTLTISSLEPEDFAVYYCQQRSNWPLTFGQGTKVEIK
notes: GC5B164 PTM variant, Hc GC5H262
B19: GC5B494 (antibody, V domains shown)
VH: EVQLVQSGAEVKKPGESLKISCKGSGYSFTSYGIGWVRQMPGKGLEWMGIIYPGYSDTRYSPSFQGQVTISADKSISTAYLQWSSLKASDTAMYYCARVYSFGGRHKALFDYWGQGTLVTVSS
VL: EIVLTQSPATLSLSPGERATLSCRASQSVSSYLAWYQQKPGQAPRLLIYDASNRATGIPARFSGSGSGTDFTLTISSLEPEDFAVYYCQQRSNWPLTFGQGTKVEIK
notes: GC5B164 PTM variant, Hc GC5H255

T1 sequence (Q9NZD1 whole entry): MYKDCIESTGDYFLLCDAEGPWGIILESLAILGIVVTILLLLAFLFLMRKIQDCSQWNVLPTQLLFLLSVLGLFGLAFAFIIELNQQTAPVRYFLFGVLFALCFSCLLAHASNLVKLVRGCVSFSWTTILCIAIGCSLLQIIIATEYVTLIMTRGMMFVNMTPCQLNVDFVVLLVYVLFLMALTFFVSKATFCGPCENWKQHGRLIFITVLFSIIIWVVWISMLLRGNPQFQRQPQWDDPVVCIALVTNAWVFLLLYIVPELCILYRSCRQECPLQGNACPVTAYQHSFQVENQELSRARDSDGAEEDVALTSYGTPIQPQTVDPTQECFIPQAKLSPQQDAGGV

One experiment concerns the target T1, human GPRC5D (human, UniProt Q9NZD1 1-345). As to the kind of experiment: cell-based or functional assay.
On to B1, for which the “T-cell mediated cytotoxicity EC50, H929 (n = 5)” value came to 1.2 nM and the “T-cell mediated cytotoxicity EC50, MM1R (n = 3)” value amounted to 0.52 nM.

On to B2, for which the “T-cell mediated cytotoxicity EC50, MM1R (n = 3)” value was found to be 2.58 nM.

Another experiment has as its target T1, human GPRC5D. As to the kind of experiment: FACS, human GPRC5D cells.
As for B3, the binding result was “binds”. Still for that read-out and setting: as for B4, the entry is “binds”. Still for that read-out and setting: as for B5, the entry is “binds”; as for B6, “binds”. Regarding B7, the binding result is on record as “binds”.

Regarding B8, the binding result was “binds”. Turning to B9, the binding result was “binds”. B10: the binding result is “binds”.

For the molecule B11, the binding result is “binds”. B12: the binding result is listed as “binds”. For the molecule B13, the binding result was “binds”. Same read-out and setting: as for B14, the entry is “binds”; as for B15, “binds”; as for B16, “binds”. Consider B17, for which the binding result is recorded as “binds”. On the same count and under the same terms, as for B18, the entry is “binds”; as for B19, “binds”.
